Reference: patent EP2536430B1

Biological target: interleukin 3 receptor α (IL-3Rα) chain on human pDCs and basophils (human) (UniProt P26951)
Assay: cell-based or functional assay

Chain of UniProt P26951 (P26951 20-378): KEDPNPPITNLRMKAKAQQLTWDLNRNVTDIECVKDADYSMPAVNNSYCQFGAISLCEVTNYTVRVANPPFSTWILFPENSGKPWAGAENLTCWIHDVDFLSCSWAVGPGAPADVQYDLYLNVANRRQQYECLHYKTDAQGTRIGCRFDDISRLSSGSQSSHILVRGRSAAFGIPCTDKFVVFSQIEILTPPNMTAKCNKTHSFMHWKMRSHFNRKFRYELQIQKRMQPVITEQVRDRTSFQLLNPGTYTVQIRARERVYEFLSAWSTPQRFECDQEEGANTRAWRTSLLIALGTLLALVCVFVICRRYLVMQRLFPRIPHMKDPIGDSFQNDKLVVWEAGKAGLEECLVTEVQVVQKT

In the case of “ch7G3 (chimeric version of 7G3 with a human IgG1 constant domain) (antibody)”, the pDCs (% of total cells remaining in culture), 4h, 10 µg/ml antibody on human PBMC (% of total cells remaining in culture) is reported as 0.1, the pDCs (% of total cells remaining in culture), 24h, 10 µg/ml antibody on human PBMC (% of total cells remaining in culture) is reported as 0.02 and the pDCs (% of total cells remaining in culture), 48h, 10 µg/ml antibody on human PBMC (% of total cells remaining in culture) is reported as 0.005.
